Source: patent US20220227876A1 (COUNCIL OF THE QUEENSLAND INSTITUTE OF MEDICAL RESEARCH, published 2022)
Values joined by “and” are separate entries in the source; they are usually repeats but may differ in a detail not shown here. Equal entries are not always repeated. Blank lines part the entries; values can stand above or below the molecule they belong to.

Columns and labels:
Test in all cases: cell-based or functional assay
[1] = molecular target: recombinant soluble human RANKL (human) (UniProt O14788)
[2] = molecular target: T1, mouse RANK on murine bone marrow cells (mouse, UniProt O35305 31-625)
T1 sequence (looked up): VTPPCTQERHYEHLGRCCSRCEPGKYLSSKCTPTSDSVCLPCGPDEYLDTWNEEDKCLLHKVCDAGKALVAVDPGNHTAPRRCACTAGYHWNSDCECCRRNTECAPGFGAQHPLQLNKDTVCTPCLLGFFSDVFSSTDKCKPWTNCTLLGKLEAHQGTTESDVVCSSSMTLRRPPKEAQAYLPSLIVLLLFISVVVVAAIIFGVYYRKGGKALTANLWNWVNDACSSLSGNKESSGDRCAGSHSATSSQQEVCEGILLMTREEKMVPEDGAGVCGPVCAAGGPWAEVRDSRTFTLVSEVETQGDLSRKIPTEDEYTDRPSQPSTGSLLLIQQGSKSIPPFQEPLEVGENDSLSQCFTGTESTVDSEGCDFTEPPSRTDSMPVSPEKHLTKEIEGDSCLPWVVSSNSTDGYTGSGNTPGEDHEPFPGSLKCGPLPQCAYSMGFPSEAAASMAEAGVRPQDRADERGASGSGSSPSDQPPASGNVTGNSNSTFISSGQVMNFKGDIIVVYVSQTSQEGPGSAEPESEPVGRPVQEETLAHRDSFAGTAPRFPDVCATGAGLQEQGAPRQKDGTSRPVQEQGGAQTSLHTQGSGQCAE

[3] = molecular target: soluble mouse RANKL (mouse) (UniProt O35235)
Sequence of soluble mouse RANKL (mouse) (O35235 143-316 limits assumed): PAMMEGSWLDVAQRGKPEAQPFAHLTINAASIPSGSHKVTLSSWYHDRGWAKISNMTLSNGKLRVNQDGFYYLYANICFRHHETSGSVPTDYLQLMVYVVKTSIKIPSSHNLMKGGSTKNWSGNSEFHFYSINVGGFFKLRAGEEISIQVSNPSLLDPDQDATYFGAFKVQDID

Sequence of recombinant soluble human RANKL (human) (O14788 143-317 limits assumed): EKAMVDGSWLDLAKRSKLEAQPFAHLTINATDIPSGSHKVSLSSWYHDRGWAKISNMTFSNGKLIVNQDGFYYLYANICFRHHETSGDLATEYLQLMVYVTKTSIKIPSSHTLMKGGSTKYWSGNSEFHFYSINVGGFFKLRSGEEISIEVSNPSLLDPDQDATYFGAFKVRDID

IC50, huRANKL-induced osteoclast formation (TRAP+ multinucleated cells) [1]: 92 ng/mL | concentration for complete block of huRANKL-induced osteoclast formation [1]: 500 ng/mL and 1000 ng/mL
Molecule: RANK-Fc (positive control in osteoclast assay) (Fc fusion)

IC50, huRANKL-induced osteoclast formation (TRAP+ multinucleated cells) [2]: 3.5 ng/mL | IC50, muRANKL-induced osteoclast formation (TRAP+ multinucleated cells) [2]: 7.4 ng/mL | potency ratio from IC50s, huRANKL-induced osteoclast formation [2]: ~25 fold | potency ratio from IC50s, muRANKL-induced osteoclast formation [2]: ~2 fold
B1: anti-RANK 3A3 antibody (full-length IgG, human Fab on a mouse IgG2a Fc backbone) (antibody, V domains shown)
VH: EVQLVESGGGVVQPGTSLRLSCAASGFTFSSYAMHWVRQAPGKGLEWVAVVSYDGSTKSYADSMKGRFTISRDNSKNTLYLQMNSLRAEDTAVYYCAKDPALRYFDWGYFQHWGQGTLVTVSS
VL: SYELTQPPSVSVSPGQTASITCSGDKLGDKYVCWYQQKPGQSPVLVIYGDSERPSGIPERFSGSNSGNTATLTISGTRAVDEADYYCQAWDSTTPLFGGGTNLTVL

IC50, muRANKL-induced osteoclast formation (TRAP+ multinucleated cells) [3]: 19.8 ng/mL | concentration for complete block of muRANKL-induced osteoclast formation [3]: 62.5 to 125 ng/mL
B2: anti-muRANKL IK22-5 mAb (antibody, from a related filing, V domains shown)
VH: QVQLKESGPGLVLSSATLSLTCTVSGFSLTNYDVSWIRHLPGKGLEWMGGVWLSGNTEYNSDFKSRLSISRDISKSQVFLKMSNLKIEDTGTYYCARDIGTTSDYWGQGVTVTVSS
VL: DIQVTQSPSFLSASVGDRVTFNCKTSQNINKYLAWYQAKFGEGPKLLIFNADSLQSGIPPRFSGSGSGTDFTLTISGLQPEDFATYFCLQYNSWPTFGSGTKLEIK
